The source of these data is the nanobody polyreactivity screen of Harvey et al. (2022).

The nature of the data set: yeast display, Sf9 membrane polyspecificity reagent, FACS + sequencing; frameworks hold sequencing errors. The method in brief: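 Galactose-induced (36–48 hours) yeast carrying a synthetic nanobody display library were exposed to 10% biotinylated, detergent-solubilized Sf9 membrane reagent at 4 °C for 1 hour. FACS followed streptavidin microbead enrichment, using low and high (top ~1%) gates for expression (anti-HA) and reagent binding (streptavidin). Colony PCR, MiSeq 2 × 250 sequencing and CDR-length filtering followed. Labels for polyreactivity reflect the gate of origin.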
As to “QVQLVESGGGLVQAGGSLRLSCAASGSIISFNTMGWYRQPPGKEREFVASIRRRGGSTYYADSVKGRFTISRDNAKNTVYLQMNSLKPEDTAVYYCAKANPHYVISDGVYHPRGGYWGQGTQVTVSS”, the “polyreactivity (PSR sort gate)” value is given as “low polyreactivity”. As for “QVQLVESGGGLVQAGGSLRLSCAASGSIISRNAMGWYRQAPGKERELVAAITSSGDSTYYADSVKGRFTISRDNAKNTVYLQMNSLKPEDTAVYYCNARAYRRKRYDYWGQGTQVTVSS”, the entry is “high polyreactivity”. For the sequence “QVQLVESGGGLVQAGGSLRLSCAASGSIISWYVMGWYRQAPGKERELVAAITWGGGSRYYADSVKGRFTISRDNAKNTVYLQMNSLKPEDTAVYYCEFDYWGQGTQVSVSS”, the “polyreactivity (PSR sort gate)” value was “low polyreactivity”.

As to “QVQLVESGGGLVQAGGSLRLSCAASGSIISYNAMGWYRQAPGKERELVAGIDLGDGTTYYADSVKGRFTISRDNAKNTVYLQMNSLKPDDTAVYYCNADIQIRPYGYAGTSTDEGLGYWGQGTQVTVSS”, the “polyreactivity (PSR sort gate)” value is recorded as “low polyreactivity”. Under “QVQLVESGGGLVQAGGSLRLSCAASGSIISYYAMGWYRQAPGKERELVAAISRGGGRTYYADSVKGRFTISRDNAKNTVYLQMNSLKPEDTAVYYCAVTPVRFASGGAWMDYWGQGTQVTVSS” stands “high polyreactivity”; under “QVQLVESGGGLVQAGGSLRLSCAASGSIIWLYAMGWYRQAPGKERELVAAISSGGSTYYADSVKGRFTISRDNAKNTVYLQMNSLKPEDTAVYYCAADYWSQSDWWDLTEYEYWGLGTQVTVSS”, “high polyreactivity”; under “QVQLVESGGGLVQAGGSLRLSCAASGSIIWRNAMGWYIQAPGKERELVAAISYSGGSTYYADSVKGRFTISRDNAKNTVYLQMNSLKPEDTAVYYCAARTSYYVYRHPSGRYDYWGQGSQVTVSS”, “low polyreactivity”. Under “QVQLVESGGGLVQAGGSLRLSCAASGSIIYFYAMGWYRPAPGKERELVAAISITSASTYYADSVKGRFTISRDNAKNTVYLQMNSLKPEDTAVYYCAAEYYYVDWIYDYWGQGTQVTVSS” stands “high polyreactivity”; under “QVQLVESGGGLVQAGGSLRLSCAASGSIIYNNAMGWYRQAPGKERELVAAIRSTGTRTYYADSVKGRFTISRDNAKNTVYLQMNSLKPEDTAVYYCAVGDYGLWSYVYWGQGTQVTVSS”, “low polyreactivity”; under “QVQLVESGGGLVQAGGSLRLSCAASGSIIYYAMGWYRQAPGKEREFVAAITKSGGSTYYADSVKGRFTFSRDNAKNTVYLQMNSLKPEDTAVYYCAARGTWAGFYYWGQGTQVTLSS”, “high polyreactivity”.

As to “QVQLVESGGGLVQAGGSLRLSCAASGSIKQNSMGWYRQAPGKERELVAAIDWDGSSTYYADSVKGRFTISRDNAKNTVYLQMNSLKPEDTAVYYCNTDYTGPDGTDEYDYWGQVTQVTVSS”, the “polyreactivity (PSR sort gate)” value is listed as “low polyreactivity”. As for “QVQLVESGGGLVQAGGSLRLSCAASGSILAGYAMGWYRQAPGKERELVAAITSGGGSTYYADSVKGRFTISSDNAKITVYLQMNSLKAEDTAVYYCARDSGYYYDEYYYWGQGTKVTVSS”, the entry is “low polyreactivity”. Turning to “QVQLVESGGGLVQAGGSLRLSCAASGSILCLNAMGWYRQAPGKERELVADITRGGSTYYADSVKGRFTISRDNAKNTVYLQMNSLKPEDTAVYYCAADAYTGQIPYYYFEHYYWGQGTQVTVSS”, the “polyreactivity (PSR sort gate)” value is listed as “high polyreactivity”. Turning to “QVQLVESGGGLVQAGGSLRLSCAASGSILDIYAMGWYRQAPGKERELVAGISTSGGSTYYADSVKGRFTISRDNAKNTVYLQMNSLNPEDTAVYYCAKDYGYQGLTRTLYCAYLEYDYWGQGTQVTVSS”, the “polyreactivity (PSR sort gate)” value was “low polyreactivity”. As for “QVQLVESGGGLVQAGGSLRLSCAASGSILDPNAMGWYRQAPGKERELVASISRGDNTYYADSVKGRFTISRDNAKNTVYFQMNSLKPEDTAVYDCAADYSWVVWHDYWGQGTQVTVSS”, the entry is “low polyreactivity”. Under “QVQLVESGGGLVQAGGSLRLSCAASGSILDSNAMGWYRQAPGKERELVAAITSGGSTYYADSVKGRFTISRDNAKNTVYLQMNSLKPEDTAVYFCAAAFLGYGAVQPSYEGGYWGQGTQVTVSS” stands “low polyreactivity”; under “QVQLVESGGGLVQAGGSLRLSCAASGSILDYNTMGWYIQAPGKERELVAAIDDDSTYYADSVKGRFTISRDNAKNTVYLQMNSLKPEDTAVYYSAVDWYYGDTYGYYYWYDYWGQGTQVTVSS”, “high polyreactivity”. For the sequence “QVQLVESGGGLVQAGGSLRLSCAASGSILGANVMGWYRQAPGKERELVASISKSGGNTFYADSVKGRFTISRDNAKNTVYLQLNRLKPEDTAVYYCAKRAHRYSYRYTYDYWGQGTQVTVSS”, the “polyreactivity (PSR sort gate)” value is “low polyreactivity”.

As to “QVQLVESGGGLVQAGGSLRLSCAASGSILGDNAMGWYRQAPGKERELVAAISYRGGSTYADSVKGRFTISRDNAKNTVYLQMNRLKPEDTAVYYCNITDIDDSQYREYEYWGQGTQVTVSS”, the “polyreactivity (PSR sort gate)” value was “low polyreactivity”. As for “QVQLVESGGGLVQAGGSLRLSCAASGSILGIYGMGWYRQSRGKERELVAAISYSGGSTYYADSVKGRFSISRDNAKNTVYLQMNSLKPEDTAVYYCAADLTRGVSYYVDFYYWGQGTQVTVSS”, the entry is “low polyreactivity”. Take “QVQLVESGGGLVQAGGSLRLSCAASGSILGYYVMGWYRQAPGKERELVAVISSDGSTYYADSVKGRFTISRDNAKNTVYLQMNSLKPEDTAVYYCNADYYVEYDYWGQGTQVTVSS”: the “polyreactivity (PSR sort gate)” value is recorded as “low polyreactivity”. In the case of “QVQLVESGGGLVQAGGSLRLSCAASGSILHVYAMGWYRQAPGKERELVAAISKSGTRTYYAVSVKGRFTISRDNAKNTVYLQMNRLKPEDTAVYYCAAERSQYVYSTDPYGYDYWGQGTQVTVSS”, the “polyreactivity (PSR sort gate)” value is listed as “high polyreactivity”. Under “QVQLVESGGGLVQAGGSLRLSCAASGSILIGNAMGWYRQAPGKERELVAAIRSGGSTNYADSVKGRFTISRDNAKNTVYLHMNSLKPEDTAVYYCARDVYVYYPYYAYDYWGQGTQVTVSS” stands “low polyreactivity”; under “QVQLVESGGGLVQAGGSLRLSCAASGSILIHYTMGWYRQAPGKERELVAAISSTGGSTYYADSVKGRFTISRDNAKNTVYLQMNSLKPEDTAVYYCNAKQYWYYFWAYQQRDVESDYWGQGTQVTVSS”, “low polyreactivity”; under “QVQLVESGGGLVQAGGSLRLSCAASGSILIYNAMGWYRQARGKERELVAAISTSGGSTYYADSVKGRFTISRDTAKNTVYLQMNSLKPEDTAVYYCAARAYPYGYWGQGTQVTVSS”, “low polyreactivity”. Under “QVQLVESGGGLVQAGGSLRLSCAASGSILKPYAMRSYRQAPGKERELVAAISGTGGSTYYADSVKGRFTISRDNAKNTVYLQMNSLKPEDTAVYYCNADEFRYAFEYWGQGTQVTVSW” stands “high polyreactivity”; under “QVQLVESGGGLVQAGGSLRLSCAASGSILLFYVMGGYRQAPGKERELVAAITSSGGGTYYADSVKGRFTISRDNAKNTVYLQMNSLKPEDTALYYCNADDDYYGESYGPEFDYWGQGTQVTVSS”, “low polyreactivity”; under “QVQLVESGGGLVQAGGSLRLSCAASGSILLGYDLGWYRQAPGKERELVASIDTNGGSTYYADSVKGRFTISRDNAKNTVYLQMNSLKPEDTAVYYCNADPSFVGGTYDYWGQGTQVTVSS”, “low polyreactivity”. In the case of “QVQLVESGGGLVQAGGSLRLSCAASGSILPYYAMGWSRQAPGKERELVATITDGTDTYYADSVKGRFTISRDNAKNTVYLQMNSLKPEDTAVYYCKADGYVYYMHEDYWGQGTQVTVSS”, the “polyreactivity (PSR sort gate)” value is given as “low polyreactivity”. For the sequence “QVQLVESGGGLVQAGGSLRLSCAASGSILPYYAMGWYRQAPGKERELVATITDGTDTYYADSVKGRFTISRDNAKNTVYLQMNSLKPEDTAVYYCNADGYVYYLHEDYWGQGTQVTVSS”, the “polyreactivity (PSR sort gate)” value is listed as “low polyreactivity”. Under “QVQLVESGGGLVQAGGSLRLSCAASGSILQQIYAMGWYRPAPGKERELVAAISASGGSTYYADSVKGRFTISRDNAKNTVYLQMNSLKPEDTAVYYCNKVGYYASVLGYDYWGQGTQVTVSS” stands “high polyreactivity”; under “QVQLVESGGGLVQAGGSLRLSCAASGSILQQYTMGWYRPAPGKERELVAAISSSGSSTYYADSVKGRFTISRDNAKNTVYLQMNSLKPEDTAVYYCNADYHDKFYWGQGTQVTVSS”, “low polyreactivity”; under “QVQLVESGGGLVQAGGSLRLSCAASGSILQSYAMGWYRQAPGKERELVAAISGSGGSTYYADSVKGRFTISRDNAKNTVYLQMNSLKPEDTAVYYCAKGPLYRTSRGEFGYWGQGTQVTVSS”, “low polyreactivity”. Under “QVQLVESGGGLVQAGGSLRLSCAASGSILQVYAMGWYRQAPGKERELVAGISWGGGRTYADSVKGRFTISRDNAKNTVYLQMISLKPEDTAVYYCNKVWRFGYYGSYYWGQGTLVTVSS” stands “high polyreactivity”; under “QVQLVESGGGLVQAGGSLRLSCAASGSILQYKAMGWYRQAPGKERELVADITSSGGSTYYADSVKGRFTISRDNAKYTVSLQMNSLKPEDTAVYYFAKDTHWAYYWGQGTQVTVSS”, “low polyreactivity”. With “QVQLVESGGGLVQAGGSLRLSCAASGSILRRNTMGWYRQAPGKERELVAAINKSGGSTYYADSVKGRFTISRDNAKNTVYLQMNSLKPEDTAVYYCNRDNYYGTKYDYWGQGTQVTVSS”, the “polyreactivity (PSR sort gate)” value is given as “low polyreactivity”. Under “QVQLVESGGGLVQAGGSLRLSCAASGSILSAYAMGWSRQAPGKERELVAAISWSGGSTYYADSVKGRFTISRDNAKNTVYLQMNSLKPEDTAVYYCATVNKKWRRYDYWGQGTQVTVSS” stands “high polyreactivity”.

Turning to “QVQLVESGGGLVQAGGSLRLSCAASGSILSGNTMGWYRPAPGKERELVAAISYGGGSTYYADSVKGRFTISRDNAKNTVYLQMNSLKPEDTAVYYCAADPWYVAYLLDGYGMDYWGQGTQVTVSS”, the “polyreactivity (PSR sort gate)” value was “low polyreactivity”. Under “QVQLVESGGGLVQAGGSLRLSCAASGSILSYNAMGWYRQAPGKERELVATITGTGGSTRYADSVKGRFTISRDNAKNTVYLQMNSLKPEDTAVYYCATAAWWYYRIYHEFGYWGQGTQVTVSS” stands “high polyreactivity”; under “QVQLVESGGGLVQAGGSLRLSCAASGSILSYYAMGWYRQAPGKERELVAAISKSGGRTYYADSVKGRFTISRDNAKNTVYLQMNSLKPEDTAVYYCAAPATYKYDYWGQGTQVTVSS”, “high polyreactivity”; under “QVQLVESGGGLVQAGGSLRLSCAASGSILTHYAMGWYRQAPGKERELVAAITWRGGSTYYADSVKGRFTISRDNAKNTVYLQMNSLKPEDSAVYYCNADYFGGGDYWGQGTQVTVSS”, “low polyreactivity”.
